These results are taken from patent US20120245104A1, “NOVEL RETRO-INVERSO LEPTIN PEPTIDE ANTAGONISTS” (priority 2011, published 2012).

Where no end group is shown, it is not given here. [ ]: non-standard residue; d: D form.

Experiment [1] deals with T1, leptin receptor (ObR) (UniProt P48357 22-1165, limits assumed).
T1 sequence (looked up): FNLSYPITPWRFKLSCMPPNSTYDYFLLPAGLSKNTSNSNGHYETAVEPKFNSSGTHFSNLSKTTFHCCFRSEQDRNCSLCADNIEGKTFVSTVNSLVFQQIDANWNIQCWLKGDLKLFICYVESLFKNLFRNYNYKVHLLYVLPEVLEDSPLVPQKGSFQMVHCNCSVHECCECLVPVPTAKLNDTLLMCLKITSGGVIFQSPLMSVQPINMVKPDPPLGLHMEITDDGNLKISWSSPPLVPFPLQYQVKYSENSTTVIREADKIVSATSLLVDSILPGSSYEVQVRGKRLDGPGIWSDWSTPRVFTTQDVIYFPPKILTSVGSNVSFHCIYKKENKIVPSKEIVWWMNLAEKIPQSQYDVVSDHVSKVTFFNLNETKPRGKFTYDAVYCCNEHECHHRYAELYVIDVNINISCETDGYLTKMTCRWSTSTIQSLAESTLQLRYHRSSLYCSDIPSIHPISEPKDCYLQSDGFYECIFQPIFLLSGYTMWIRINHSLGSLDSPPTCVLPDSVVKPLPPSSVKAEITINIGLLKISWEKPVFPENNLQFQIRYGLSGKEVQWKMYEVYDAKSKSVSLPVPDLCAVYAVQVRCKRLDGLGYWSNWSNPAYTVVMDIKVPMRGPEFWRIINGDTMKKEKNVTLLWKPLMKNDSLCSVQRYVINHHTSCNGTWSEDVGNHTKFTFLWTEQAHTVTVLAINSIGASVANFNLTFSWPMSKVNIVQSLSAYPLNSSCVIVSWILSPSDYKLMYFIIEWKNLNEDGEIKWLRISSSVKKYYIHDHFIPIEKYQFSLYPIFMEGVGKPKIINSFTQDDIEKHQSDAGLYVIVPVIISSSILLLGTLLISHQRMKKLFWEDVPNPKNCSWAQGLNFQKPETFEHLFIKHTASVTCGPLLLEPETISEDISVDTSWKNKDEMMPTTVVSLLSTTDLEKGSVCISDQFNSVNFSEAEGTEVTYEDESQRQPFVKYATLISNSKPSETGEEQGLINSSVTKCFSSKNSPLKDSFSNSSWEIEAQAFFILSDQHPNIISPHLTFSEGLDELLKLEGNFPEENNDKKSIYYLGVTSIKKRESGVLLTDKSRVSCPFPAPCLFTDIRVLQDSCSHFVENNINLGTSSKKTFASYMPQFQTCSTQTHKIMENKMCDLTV
In words: cell-based or functional assay.

The target in experiment [2] is T1, leptin receptor (ObR). In words: cell-based or functional assay. The source holds these as a separate data set.

As to VQDDVKTLIKTIVTRINDI-NH2 [Truncated LPA-1 (6-24), T10 Val substitution], the “IC50 (half maximal inhibitory concentration), inhibition of leptin-induced cell growth” value (from here on “IC50 … inhibition of leptin-induced cell growth”) in the experiment with leptin receptor (ObR) [1] came to 20.7 nM.

B1: Retro-inverso LPA-2(89-72), D-I79 (peptide)
peptide: H-[dV][dH][dL][dL][dD][dR][dL][dN][dE][dL][dI][dN][dS][dI][dQ][dI][dV][dN]-NH2
SMILES: CC[C@@H](C)[C@@H](NC(=O)[C@@H](CC(C)C)NC(=O)[C@@H](CCC(=O)O)NC(=O)[C@@H](CC(N)=O)NC(=O)[C@@H](CC(C)C)NC(=O)[C@@H](CCCNC(=N)N)NC(=O)[C@@H](CC(=O)O)NC(=O)[C@@H](CC(C)C)NC(=O)[C@@H](CC(C)C)NC(=O)[C@@H](Cc1c[nH]cn1)NC(=O)[C@H](N)C(C)C)C(=O)N[C@H](CC(N)=O)C(=O)N[C@H](CO)C(=O)N[C@@H](C(=O)N[C@H](CCC(N)=O)C(=O)N[C@@H](C(=O)N[C@@H](C(=O)N[C@H](CC(N)=O)C(N)=O)C(C)C)[C@H](C)CC)[C@H](C)CC
For B1, the “IC50, inhibition of leptin-induced growth of MCF-7 cells” value (from here on “IC50, inhibition”) with leptin receptor (ObR) [2] came out at 9.7 nM.

B2: Retro-inverso LPA-1(24-6), D-T10 (peptide)
peptide: H-[dI][dD][dN][dI][dR][dT][dV][dI][dT][dK][dI][dL][dT][dK][dT][dD][dD][dQ][dV]-NH2
SMILES: CC[C@@H](C)[C@@H](N)C(=O)N[C@H](CC(=O)O)C(=O)N[C@H](CC(N)=O)C(=O)N[C@@H](C(=O)N[C@H](CCCNC(=N)N)C(=O)N[C@@H](C(=O)N[C@@H](C(=O)N[C@@H](C(=O)N[C@@H](C(=O)N[C@H](CCCCN)C(=O)N[C@@H](C(=O)N[C@H](CC(C)C)C(=O)N[C@@H](C(=O)N[C@H](CCCCN)C(=O)N[C@@H](C(=O)N[C@H](CC(=O)O)C(=O)N[C@H](CC(=O)O)C(=O)N[C@H](CCC(N)=O)C(=O)N[C@@H](C(N)=O)C(C)C)[C@H](C)O)[C@H](C)O)[C@H](C)CC)[C@H](C)O)[C@H](C)CC)C(C)C)[C@H](C)O)[C@H](C)CC
Take B2: the “IC50, inhibition” value with leptin receptor (ObR) [2] turned out to be 16.9 nM.

B3: Retro-inverso LPA-1(24-6), D-V10 (peptide)
peptide: H-[dI][dD][dN][dI][dR][dT][dV][dI][dT][dK][dI][dL][dT][dK][dV][dD][dD][dQ][dV]-NH2
SMILES: CC[C@@H](C)[C@@H](N)C(=O)N[C@H](CC(=O)O)C(=O)N[C@H](CC(N)=O)C(=O)N[C@@H](C(=O)N[C@H](CCCNC(=N)N)C(=O)N[C@@H](C(=O)N[C@@H](C(=O)N[C@@H](C(=O)N[C@@H](C(=O)N[C@H](CCCCN)C(=O)N[C@@H](C(=O)N[C@H](CC(C)C)C(=O)N[C@@H](C(=O)N[C@H](CCCCN)C(=O)N[C@@H](C(=O)N[C@H](CC(=O)O)C(=O)N[C@H](CC(=O)O)C(=O)N[C@H](CCC(N)=O)C(=O)N[C@@H](C(N)=O)C(C)C)C(C)C)[C@H](C)O)[C@H](C)CC)[C@H](C)O)[C@H](C)CC)C(C)C)[C@H](C)O)[C@H](C)CC
Consider B3, for which, in the experiment with leptin receptor (ObR) [2], the “IC50, inhibition” value is 17.4 nM.

B4: Retro-inverso LPA-1(24-6), D-L10 (peptide)
peptide: H-[dI][dD][dN][dI][dR][dT][dV][dI][dT][dK][dI][dL][dT][dK][dL][dD][dD][dQ][dV]-NH2
SMILES: CC[C@@H](C)[C@@H](N)C(=O)N[C@H](CC(=O)O)C(=O)N[C@H](CC(N)=O)C(=O)N[C@@H](C(=O)N[C@H](CCCNC(=N)N)C(=O)N[C@@H](C(=O)N[C@@H](C(=O)N[C@@H](C(=O)N[C@@H](C(=O)N[C@H](CCCCN)C(=O)N[C@@H](C(=O)N[C@H](CC(C)C)C(=O)N[C@@H](C(=O)N[C@H](CCCCN)C(=O)N[C@H](CC(C)C)C(=O)N[C@H](CC(=O)O)C(=O)N[C@H](CC(=O)O)C(=O)N[C@H](CCC(N)=O)C(=O)N[C@@H](C(N)=O)C(C)C)[C@H](C)O)[C@H](C)CC)[C@H](C)O)[C@H](C)CC)C(C)C)[C@H](C)O)[C@H](C)CC
With B4, the “IC50, inhibition” value in the experiment with leptin receptor (ObR) [2] was 11.8 nM.

With NVIQISNVLENLRDLLHV-NH2 [Truncated LPA-2 (72-89), D79 Val substitution], the “IC50 … inhibition of leptin-induced cell growth” value in the experiment with leptin receptor (ObR) [1] is 15.6 nM.

As for NVIQISNLLENLRDLLHV-NH2 [Truncated LPA-2 (72-89), D79 Leu substitution], the “IC50 … inhibition of leptin-induced cell growth” value with leptin receptor (ObR) [1] is 16 nM.

B5: Retro-inverso LPA-2(89-72), D-D79 (peptide)
peptide: H-[dV][dH][dL][dL][dD][dR][dL][dN][dE][dL][dD][dN][dS][dI][dQ][dI][dV][dN]-NH2
SMILES: CC[C@@H](C)[C@@H](NC(=O)[C@@H](CO)NC(=O)[C@@H](CC(N)=O)NC(=O)[C@@H](CC(=O)O)NC(=O)[C@@H](CC(C)C)NC(=O)[C@@H](CCC(=O)O)NC(=O)[C@@H](CC(N)=O)NC(=O)[C@@H](CC(C)C)NC(=O)[C@@H](CCCNC(=N)N)NC(=O)[C@@H](CC(=O)O)NC(=O)[C@@H](CC(C)C)NC(=O)[C@@H](CC(C)C)NC(=O)[C@@H](Cc1c[nH]cn1)NC(=O)[C@H](N)C(C)C)C(=O)N[C@H](CCC(N)=O)C(=O)N[C@@H](C(=O)N[C@@H](C(=O)N[C@H](CC(N)=O)C(N)=O)C(C)C)[C@H](C)CC
For the molecule B5, in the experiment with leptin receptor (ObR) [2], the “IC50, inhibition” value was 19.4 nM.

Consider NVIQISNILENLRDLLHV-NH2 [Truncated LPA-2 (72-89), D79 Ile substitution], for which the “IC50 … inhibition of leptin-induced cell growth” value with leptin receptor (ObR) [1] was 16 nM.

As for VQDDAKTLIKTIVTRINDI-NH2 [Truncated LPA-1 (6-24), T10 Ala substitution], the “IC50 … inhibition of leptin-induced cell growth” value with leptin receptor (ObR) [1] was found to be 88 nM.

Turning to VQDDIKTLIKTIVTRINDI-NH2 [Truncated LPA-1 (6-24), T10 Ile substitution], the “IC50 … inhibition of leptin-induced cell growth” value in the experiment with leptin receptor (ObR) [1] amounted to 21 nM.

B6: Retro-inverso LPA-2(89-72), D-V79 (peptide)
peptide: H-[dV][dH][dL][dL][dD][dR][dL][dN][dE][dL][dV][dN][dS][dI][dQ][dI][dV][dN]-NH2
SMILES: CC[C@@H](C)[C@@H](NC(=O)[C@@H](CO)NC(=O)[C@@H](CC(N)=O)NC(=O)[C@H](NC(=O)[C@@H](CC(C)C)NC(=O)[C@@H](CCC(=O)O)NC(=O)[C@@H](CC(N)=O)NC(=O)[C@@H](CC(C)C)NC(=O)[C@@H](CCCNC(=N)N)NC(=O)[C@@H](CC(=O)O)NC(=O)[C@@H](CC(C)C)NC(=O)[C@@H](CC(C)C)NC(=O)[C@@H](Cc1c[nH]cn1)NC(=O)[C@H](N)C(C)C)C(C)C)C(=O)N[C@H](CCC(N)=O)C(=O)N[C@@H](C(=O)N[C@@H](C(=O)N[C@H](CC(N)=O)C(N)=O)C(C)C)[C@H](C)CC
Regarding B6, the “IC50, inhibition” value in the experiment with leptin receptor (ObR) [2] was 13.6 nM.

Take NVIQISNALENLRDLLHV-NH2 [Truncated LPA-2 (72-89), D79 Ala substitution]: the “IC50 … inhibition of leptin-induced cell growth” value in the experiment with leptin receptor (ObR) [1] turned out to be 54 nM.

B7: Retro-inverso LPA-2(89-72), D-L79 (peptide)
peptide: H-[dV][dH][dL][dL][dD][dR][dL][dN][dE][dL][dL][dN][dS][dI][dQ][dI][dV][dN]-NH2
SMILES: CC[C@@H](C)[C@@H](NC(=O)[C@@H](CO)NC(=O)[C@@H](CC(N)=O)NC(=O)[C@@H](CC(C)C)NC(=O)[C@@H](CC(C)C)NC(=O)[C@@H](CCC(=O)O)NC(=O)[C@@H](CC(N)=O)NC(=O)[C@@H](CC(C)C)NC(=O)[C@@H](CCCNC(=N)N)NC(=O)[C@@H](CC(=O)O)NC(=O)[C@@H](CC(C)C)NC(=O)[C@@H](CC(C)C)NC(=O)[C@@H](Cc1c[nH]cn1)NC(=O)[C@H](N)C(C)C)C(=O)N[C@H](CCC(N)=O)C(=O)N[C@@H](C(=O)N[C@@H](C(=O)N[C@H](CC(N)=O)C(N)=O)C(C)C)[C@H](C)CC
Turning to B7, in the experiment with leptin receptor (ObR) [2], the “IC50, inhibition” value came to 18.7 nM.

B8: Retro-inverso LPA-1(24-6), D-I10 (peptide)
peptide: H-[dI][dD][dN][dI][dR][dT][dV][dI][dT][dK][dI][dL][dT][dK][dI][dD][dD][dQ][dV]-NH2
SMILES: CC[C@@H](C)[C@@H](N)C(=O)N[C@H](CC(=O)O)C(=O)N[C@H](CC(N)=O)C(=O)N[C@@H](C(=O)N[C@H](CCCNC(=N)N)C(=O)N[C@@H](C(=O)N[C@@H](C(=O)N[C@@H](C(=O)N[C@@H](C(=O)N[C@H](CCCCN)C(=O)N[C@@H](C(=O)N[C@H](CC(C)C)C(=O)N[C@@H](C(=O)N[C@H](CCCCN)C(=O)N[C@@H](C(=O)N[C@H](CC(=O)O)C(=O)N[C@H](CC(=O)O)C(=O)N[C@H](CCC(N)=O)C(=O)N[C@@H](C(N)=O)C(C)C)[C@H](C)CC)[C@H](C)O)[C@H](C)CC)[C@H](C)O)[C@H](C)CC)C(C)C)[C@H](C)O)[C@H](C)CC
As to B8, in the experiment with leptin receptor (ObR) [2], the “IC50, inhibition” value was determined as 17.6 nM.
